Experimental data published in article PMC8131977 (Biochemistry and Biophysics Reports, 2021).

Biological target: T1, Bacillus licheniformis subtilisin A (Bacillus licheniformis, UniProt P00780 106-379)
T1 sequence (looked up): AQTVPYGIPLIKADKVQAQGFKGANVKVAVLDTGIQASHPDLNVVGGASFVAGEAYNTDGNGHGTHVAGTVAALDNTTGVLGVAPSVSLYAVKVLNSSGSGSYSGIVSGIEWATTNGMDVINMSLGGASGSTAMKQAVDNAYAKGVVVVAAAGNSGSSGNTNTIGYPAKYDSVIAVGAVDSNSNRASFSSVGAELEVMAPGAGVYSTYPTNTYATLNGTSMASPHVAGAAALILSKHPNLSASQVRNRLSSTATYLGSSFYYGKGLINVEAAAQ
Assay: enzyme inhibition assay

Binder: AEDCVGRKACTAEWYPVCGSDGVTYSNPCNFSAQQEQCDPNITIAHMGEC (natural protein, Cenchritis muricatus, UniProt P84755 1-50, looked up) [rCmPI-II R12A, alanine mutant at the P1 position of CmPI-II]
- fold decrease of IC50 against rCmPI-II: 3 fold
